The target of this series is Arg224 (UniProt position 224, YHALYRYFVEL). Put plainly: electrophysiology.

What is called pKa is the pH at which an ionisable group is half protonated.

Consider “TASK-2 (K2P5.1) two-pore domain K+ channel (Mus musculus)”, for which the pKa is listed as 8.37 (bath: 135 mM sodium gluconate, 1 mM potassium gluconate, 4 mM KCl, 2 mM CaCl2, 1 mM MgCl2, 105 mM sucrose, pipette: 8 mM KCl, 132 mM potassium gluconate, 1 mM MgCl2, 10 mM EGTA, 1 mM Na3ATP, 0.1 mM GT, 10 mM HEPES/Tris, 0 mV value from a fit across voltages, [K+]i/[K+]o 140/5 mM, intracellular pH 7.4); 8.15 (bath: 135 mM sodium gluconate, 1 mM potassium gluconate, 4 mM KCl, 2 mM CaCl2, 1 mM MgCl2, 105 mM sucrose, pipette: 8 mM KCl, 132 mM potassium gluconate, 1 mM MgCl2, 10 mM EGTA, 1 mM Na3ATP, 0.1 mM GT, 10 mM HEPES/Tris, membrane potential +60 mV, [K+]i/[K+]o 140/5 mM, intracellular pH 7.4); 8.76 (bath: 135 mM sodium gluconate, 1 mM potassium gluconate, 4 mM KCl, 2 mM CaCl2, 1 mM MgCl2, 105 mM sucrose, pipette: 8 mM KCl, 132 mM potassium gluconate, 1 mM MgCl2, 10 mM EGTA, 1 mM Na3ATP, 0.1 mM GT, 10 mM HEPES/Tris, membrane potential -120 mV, [K+]i/[K+]o 140/5 mM, intracellular pH 7.4); 8.0 (not stated, most extracellular Cl- replaced by sulphate, extracellular solution with most Cl- replaced by sulphate, voltage not stated, cited from earlier work).

The record behind these values is PMC3725403.
